Molecular target: unmodified (unphosphorylated) recombinant tau, human 1N4R isoform (human)
Assay: thioflavin S fluorescence aggregation assay

net increase of ThS fluorescence (9 μM tau) (units of ThS fluorescence): 41
net increase of ThS fluorescence (18 μM tau) (units of ThS fluorescence): 54
Substance: unmodified (unphosphorylated) recombinant tau, human 1N4R isoform (natural protein)

From paper PMC7530023
